“Also recorded” adds a separate entry of the source. Marks after values point to notes of the source that are not given here. Non-standard residues stand in square brackets, D forms with d. No end group written: not given here. Nle = CCCC[C@H](N)C(=O)O; SO3‑ = not defined here

Experimental findings from patent publication US7888291B2, “Substrates and assays for β-secretase” (Elan Pharmaceuticals, Inc., priority 2000, dated 2011) are described below.

Assay [1] addresses T1, Hu-Asp2 (Homo sapiens, UniProt P56817).
T1 construct: made in house; host or cells: High Five insect cells
Put plainly: Hu-Asp2 peptide substrate cleavage assay (HPLC quantitation of cleavage products). Type of assay: biochemical. The note with it: for activity / rate of hydrolysis by Asp2 over wild type peptide (SEQ ID NO:20): Tables 3 and 4.

The target in assay [2] is T1, Hu-Asp2. The description is as above. The assay is classed as biochemical. Also on record: key to Activity: Those substrates that were not cleaved by the Hu-Asp2 are indicated by a “−” sign; substrates that produced activity are indicated by “+” signs in which the greater the activity, the more + signs are provided; ++: substrates that produced activity are indicated by “+” signs in which the greater the activity, the more + signs are provided; ++++: substrates that produced activity are indicated by “+” signs in which the greater the activity, the more + signs are provided. The note with it: for Activity: 200 μM test substrate, 210 nM Hu-Asp2 enzyme, pH 4.5, 37° C., 3 hours. On the procedure: The peptides listed in Table 2 were designed, synthesized, and tested for activity as substrates for Hu-Asp2. 200 μM of each test substrate was incubated with 210 nM Hu-Asp2 enzyme at pH 4.5 at 37° C. for 3 hours. Of course it should be understood that these are merely exemplary assay conditions, and those of skill in the art will be able to vary these conditions and yet still provide appropriate Hu-Asp2 activity. For example, it is envisioned that the assays may be conducted at a pH range of from between about 4.0 to about 7.0. The amount of enzyme added to a given reaction mixture may also be varied and those of skill in the art will be able to perform assays defining the optimal enzyme concentrations necessary for a given assay, as such 150 nm; 200 nm; 250 nm; 300 nm or more or less enzyme may be added. Substrate concentration in those also may be varied such that an assay may use 100, 150 μM, 200 μM, 250 μM, 300 μM, 350 μM or more or less of any given; substrate. It may be that one substrate produces an optimum activity at one concentration whereas another substrate is needed to be present at a different concentration to produce an optimum cleavage rate. However, such optimizations of enzyme assay conditions is well within the skill of those in the art and will not require undue experimentation.
In an exemplary assay to determine the cleavage of the substrates of the present invention, Asp2 was prepared from High Five™ insect cells. Generally, the assasy are run in solution at acidic pH (4.0 to 5.0), at 25-37° C. in the presence of nM or sub-nanomolar enzyme. After a suitable period of incubation the reaction is stopped at a desired time by addition of 4% trifluoracetic acid (TFA). Substrates and products are separated using reverse phase HPLC. The disappearance of the substrates and the appearance of the products are monitored by continuous measurement of the absorbance of the effluent at […]. Furthermore, if the peptide comprises a tryptophan residue, the monitoring may additionally or alternatively involve continuous monitoring of fluorescence of tryptophan fluorescence (excitation at 280 nm, emission at […]) of the effluent.
In a typical assay, 210 nM enzyme and 200 μM substrate were incubated in 0.2 M sodium acetate at pH 4.5 in 100 μl volume at 37° C. for 1 to 3 hours. The assay was stopped by the addition of 50 μl 4% TFA to lower the pH below the active range of the enzyme. Subsequently, 100 μl of this mixture was injected into a Hewlett Packard Model 1090 HPLC equipped with a Vydac column (4.6 mm i.d.×150 mm, 5 μm) pre-equilibrated with 95% A (0.15% TFA in water), 5% B (0.15% TFA in acetonitrile). The constituents were then eluted from the column with the following linear gradients: 0-15 min: 5-50% B; 15-17 min: 50-100% B; 17-20 min: 100-5% B; 20-22 min: 5% B). The cleavage products were then quantitated using an enhanced integrator. […]

Where [3] appears, read: Table 3, 200 nM enzyme, 200 μM substrate, 300 mM Na-acetate, 4% DMSO, pH 4.5, 37° C., 4 hr, APP-Sw = 100.
Where [4] appears, read: Table 5, 2 nM enzyme, 50 μM substrate, 25 mM Sodium acetate, pH 4.4, 37° C., 2 hr.
Setting [5] is: Table 5, 2 nM enzyme, 50 μM substrate, 25 mM Sodium acetate, pH 4.4, 37° C., 2 hr, SEQ ID NO:141 = 100.
[6] abbreviates: Table 4, 200 nM enzyme, 200 μM substrate, pH 4.5, 37° C., 1 hr, SEQ ID NO:19 = 100.

T1 sequence (P56817 46-501): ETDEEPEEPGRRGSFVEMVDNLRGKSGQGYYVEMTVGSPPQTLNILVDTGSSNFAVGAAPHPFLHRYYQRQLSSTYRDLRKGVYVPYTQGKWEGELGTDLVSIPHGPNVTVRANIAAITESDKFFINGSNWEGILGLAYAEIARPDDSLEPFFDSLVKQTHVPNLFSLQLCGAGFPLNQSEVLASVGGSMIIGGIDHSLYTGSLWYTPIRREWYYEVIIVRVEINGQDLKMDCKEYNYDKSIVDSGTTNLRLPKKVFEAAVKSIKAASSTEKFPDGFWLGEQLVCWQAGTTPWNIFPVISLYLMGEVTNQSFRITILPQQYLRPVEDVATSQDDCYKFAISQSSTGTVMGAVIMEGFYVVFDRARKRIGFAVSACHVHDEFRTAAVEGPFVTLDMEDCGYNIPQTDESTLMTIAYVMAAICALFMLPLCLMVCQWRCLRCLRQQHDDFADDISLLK

KTISL- ↓-DVEPS (KTISLDVEPS) [Peptide 6]: in the assay with Hu-Asp2 [1] (Table 3), the “activity as percentage of the Swedish mutation peptide (SEQ ID NO:19)” value turned out to be 69%. Besides, the “Relative rate of Cleavage” value with Hu-Asp2 [1] (setting [3]) amounted to 69.0. Further, the “activity / rate of hydrolysis by Asp2 over wild type peptide (SEQ ID NO:20)” value with Hu-Asp2 [1] was “about 35 fold”.
In the case of TEIDY-EVEFR (TEIDYEVEFR), the “Cleavage Activity” value with Hu-Asp2 [1] (setting [4]) was found to be 0.62 µmol/min/mg. For the same substance, the “Relative rate of Cleavage” value in the assay with Hu-Asp2 [1] (setting [5]) is 390.
SEVSY-↓-EAEFR (SEVSYEAEFR): the “activity as substrate of Hu-Asp2 (in words)” value (“activity as substrate” below) with Hu-Asp2 [2] is recorded as “activity comparable to the Swedish mutation; also recorded: activity comparable to that of the Swedish mutant”. Besides, the “Relative rate of Cleavage” value with Hu-Asp2 [1] (setting [6]) was found to be 77.1.
In the case of “KTINnle-↓-EVDPS (KTIN[Nle]EVDPS) [Peptide 4]”, the “activity as substrate” value with Hu-Asp2 [2] is on record as “very well tolerated”. For the same substance, in the assay with Hu-Asp2 [1] (setting [3]), the “Relative rate of Cleavage” value came to 93.6.
Regarding Biotin-KVEANY-EVEGERC(oregon green)KK, the cleavage site entry at Hu-Asp2 [2] was “between Tyr and Glu only”. Also, the “Vmax and Km compared with a previous biotinylated fluorescent substrate derived from the Swedish Mutant peptide” value at Hu-Asp2 [1] was “at least twice better; also recorded: at least double”. Besides, the “cleavage after 15 minutes” value on Hu-Asp2 [1] (200 mM sodium acetate, pH 4.5, 10 μM substrate, 50 nM enzyme, 37° C., 15 minutes) amounted to 20%. At Hu-Asp2 [1] (200 mM sodium acetate, pH 4.5, 10 μM substrate, 50 nM enzyme, 37° C., 30 minutes), the “cleavage after 30 minutes” value worked out at 37%. At Hu-Asp2 [1] (200 mM sodium acetate, pH 4.5, 10 μM substrate, 50 nM enzyme, 37° C., 60 minutes), the “cleavage after 60 minutes” value amounted to 57%. Moreover, at Hu-Asp2 [1] (200 mM sodium acetate, pH 4.5, 10 μM substrate, 50 nM enzyme, 37° C., 120 minutes), the “cleavage after 120 minutes” value is 82%.
SEVNY-↓-EVEFR (SEVNYEVEFR): in the assay with Hu-Asp2 [1] (peptide activity assays), the “activity as fraction of that of SEVSY-EVEFR (SEQ ID NO:141)” value was “⅕”.
On to TEVSY-EVEFR (TEVSYEVEFR), for which, in the assay with Hu-Asp2 [1] (setting [4]), the “Cleavage Activity” value was 0.27 µmol/min/mg. Besides, the “Relative rate of Cleavage” value in the assay with Hu-Asp2 [1] (setting [5]) was determined as 160.
The corresponding values for SEVDY-EVEFR (SEVDYEVEFR) are 0.38 µmol/min/mg and 240.
Turning to WRRVEALY-LVEGERK (WRRVEALYLVEGERK), the Activity result in the assay with Hu-Asp2 [2] is “++”.
“KTINnle-↓-EVEPS (KTIN[Nle]EVEPS) [Peptide 3]”: the “activity as substrate” value with Hu-Asp2 [2] was “activity similar to that of the Swedish mutation”. Besides, the “Relative rate of Cleavage” value with Hu-Asp2 [1] (setting [3]) is listed as 92.6.
In the case of “SEVKM-DAEFR (SEVKMDAEFR) [APP-Wildtype, reference compound]”, the “Relative rate of Cleavage” value with Hu-Asp2 [1] (Table 3, 200 nM enzyme, 200 μM substrate, 300 mM Na-acetate, 4% DMSO, pH 4.5, 37° C., 24 hr reaction) is reported as 2.1*; with Hu-Asp2 [1] (Table 4, 200 nM enzyme, 200 μM substrate, pH 4.5, 37° C., 24 hr reaction) it was 2.1*.
In the case of KVEANY-EVEGERKK (KVEANYEVEGERKK), in the assay with Hu-Asp2 [2], the “activity as substrate” value is reported as “good substrate for Hu-Asp” and the Activity entry was “++++”.
For the substance KVEANY-DVEGERKK (KVEANYDVEGERKK), the Activity result in the assay with Hu-Asp2 [2] was “+”.
The same measure, in the same setting: for KVEANY-AVEGERKK (KVEANYAVEGERKK) the value was “++++”.
In the case of SEISY-EVEFR (SEISYEVEFR), the “rate of cleavage / activity over SEVSY-EVEFR (SEQ ID NO:141)” value with Hu-Asp2 [1] was found to be 5 fold. The “Cleavage Activity” value in the assay with Hu-Asp2 [1] (setting [4]) was 0.80 µmol/min/mg. For the same substance, the “Relative rate of Cleavage” value with Hu-Asp2 [1] (setting [5]) was found to be 500.
On to KTEEISEVSY-EVEFR (KTEEISEVSYEVEFR), for which the “rate of cleavage / activity over SEVSY-EVEFR (SEQ ID NO:141)” value in the assay with Hu-Asp2 [1] is given as 3.6 fold. For the same substance, the “Cleavage Activity” value with Hu-Asp2 [1] (setting [4]) was 0.58 µmol/min/mg. In addition, in the assay with Hu-Asp2 [1] (setting [5]), the “Relative rate of Cleavage” value came to 360.
Regarding VEALY-LVEGER (VEALYLVEGER), the “activity as substrate” value with Hu-Asp2 [2] was “found to be cleaved by the Hu-Asp2”.
Consider “KTINnle-↓-DVDPS (KTIN[Nle]DVDPS) [Peptide 5]”, for which the “reduction of activity compared with peptide #3 (SEQ ID NO:134)” value with Hu-Asp2 [1] (Table 3) is given as “about 10 fold”. In addition, the “Relative rate of Cleavage” value in the assay with Hu-Asp2 [1] (setting [3]) was 12.2.
As for KVEANY-EVEGERCKK (KVEANYEVEGERCKK), in the assay with Hu-Asp2 [2], the “activity as substrate” value is on record as “good substrate for Hu-Asp2”.
For the substance “TRPGSGLTNIKTEEISEVSY-EVEFR (TRPGSGLTNIKTEEISEVSYEVEFR)”, the “rate of cleavage / activity over SEVSY-EVEFR (SEQ ID NO:141)” value with Hu-Asp2 [1] is 8.4 fold. Moreover, the “Cleavage Activity” value in the assay with Hu-Asp2 [1] (setting [4]) is 1.35 µmol/min/mg. For the same substance, the “Relative rate of Cleavage” value with Hu-Asp2 [1] (setting [5]) amounted to 840.
In the case of KTINL-↓-EVEPS (KTINLEVEPS) [Peptide 2], the “activity as substrate” value with Hu-Asp2 [2] is given as “activity similar to that of the Swedish mutant”. The “Relative rate of Cleavage” value in the assay with Hu-Asp2 [1] (setting [3]) came to 92.0.
For the substance SEVSY-↓-DAEFR (SEVSYDAEFR), in the assay with Hu-Asp2 [1] (Table 4), the “activity compared with Swedish mutant peptide (SEQ ID NO:19)” value is on record as “about five times less than that of the Swedish mutation”. The “Relative rate of Cleavage” value with Hu-Asp2 [1] (setting [6]) was 18.3. The “activity / rate of hydrolysis by Asp2 over wild type peptide (SEQ ID NO:20)” value with Hu-Asp2 [1] is listed as “about 9 fold”.
As for “KTITL-↓-EVEPS (KTITLEVEPS) [Ubiquitin (Pep 1)]”, in the assay with Hu-Asp2 [1] (Table 3), the “activity as percentage of the Swedish mutation peptide (SEQ ID NO:19)” value is “about 13%”. Besides, the “Relative rate of Cleavage” value with Hu-Asp2 [1] (setting [3]) turned out to be 13.1. Besides, the “activity / rate of hydrolysis by Asp2 over wild type peptide (SEQ ID NO:20)” value with Hu-Asp2 [1] is “six times better than wild type peptide”.
Take KVEANL-AVEGERKK (KVEANLAVEGERKK): the Activity entry in the assay with Hu-Asp2 [2] is recorded as “+”.
With KTISL- ↓-DVDPS (KTISLDVDPS) [Peptide 7], the “activity as substrate” value with Hu-Asp2 [2] is given as “activity dropped substantially”. Further, the “Relative rate of Cleavage” value with Hu-Asp2 [1] (setting [3]) amounted to 20.5.
For the substance “KVEALY-LV(SO3-)GER (KVEALYLV[SO3‑]GER; reading uncertain; also: sulfonated residue, parent residue not given here, printed as KVEALY-LV(SO3-)GER)”, the Activity entry with Hu-Asp2 [2] is reported as “−”.
The same measure, in the same setting: the result for KVEALY-AVEGERKK (KVEALYAVEGERKK) reads “+”.
Turning to “SEVNL-DAEFR (SEVNLDAEFR) [APP-Sw, reference compound]”, the results for the “Relative rate of Cleavage” value with Hu-Asp2 [1] (setting [3]) and with Hu-Asp2 [1] (setting [6]) were 100 and 100.0, respectively.
Regarding TEVDY-EVEFR (TEVDYEVEFR), the “Cleavage Activity” value with Hu-Asp2 [1] (setting [4]) amounted to 0.37 µmol/min/mg. Moreover, the “Relative rate of Cleavage” value with Hu-Asp2 [1] (setting [5]) turned out to be 230.
For the substance KVEANY-LVEGERKK (KVEANYLVEGERKK), in the assay with Hu-Asp2 [2], the Activity result is listed as “+”.
For the substance SEIDY-EVEFR (SEIDYEVEFR), in the assay with Hu-Asp2 [1] (setting [4]), the “Cleavage Activity” value is 0.69 µmol/min/mg. The “Relative rate of Cleavage” value with Hu-Asp2 [1] (setting [5]) is on record as 430.
